# Assay results published in article PMC12237034.
# Experiments:
# Coagulation factor XIa [1] = target: Coagulation factor XIa
# Coagulation factor XIa [2] = experiment: enzyme inhibition kinetics; XIa (0.5 nM) preincubated with peptide 30 min at 37 °C, chromogenic substrate S2366; 50 mM Tris pH 7.4, 140 mM NaCl, 5 mM CaCl2, 0.1% BSA; double reciprocal plots, mixed inhibition
substance,measurement,setting,value
Schistosoma Kunitz peptide Shp4 (Schistosoma haematobium peptide-repeat 4) (domain or fragment),"inhibition of XIa activity on a chromogenic substrate, concentration dependent",Coagulation factor XIa [1],7.1 nM
same,Ki,Coagulation factor XIa [2],3.35 nM
same,Ki' (towards the enzyme-substrate complex),Coagulation factor XIa [2],1.64 nM
